# Data as given in patent US20140178329A1 (INSTITUCIO CATALANA DE RECERCA I ESTUDIS AVANCATS ICREA, published 2014).
# Residue numbers refer to the chain shown, from its start. Numbers in names are those of the source.
# B1: APRIL T175D-D205K double mutant (ligand)
# chain: AVLTQKQKKQHSVLHLVPINATSKDDSDVTEVMWQPALRRGRGLQAQGYGVRIQDAGVYLLYSQVLFQDVDFTMGQVVSREGQGRQETLFRCIRSMPSHPKRAYNSCYSAGVFHLHQGDILSVIIPRARAKLNLSPHGTFLGFVKL
# notes: also called T175D-D205Y/K; not shown: FLAG tag
# B2: APRIL T175D-D205Y double mutant (ligand)
# chain: B1 chain with K101Y
# notes: as for B1
# B3: APRIL T175D-R206E double mutant (ligand)
# chain: B1 chain with K101D, R102E
# notes: not shown: FLAG tag
# B4: APRIL-R206E (FLAG-tagged soluble variant) (ligand)
# chain: B1 chain with D71T, K101D, R102E
# notes: Used as conditioned medium; also called R206E-APRIL; not shown: FLAG tag
# B5: APRIL-R231A (FLAG-tagged soluble variant) (ligand)
# chain: B1 chain with D71T, K101D, R127A
# notes: also called receptor-dead R231A variant; not shown: FLAG tag
# What was measured:
# human BCMA-Fc [1] = molecular target: T1, human BCMA-Fc (human, UniProt Q02223 2-54, limits assumed); assay: binding test not named (data not shown)
# T1 construct: Generated in-house; not shown: Fc portion of human IgG1
# T1 sequence (looked up): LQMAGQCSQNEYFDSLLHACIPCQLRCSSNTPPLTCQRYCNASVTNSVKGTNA
# human TACI-Fc [2] = molecular target: T2, human TACI-Fc (human, UniProt O14836 2-160, limits assumed); assay: binding test not named (data not shown)
# T2 construct: Generated in-house; not shown: Fc portion of human IgG1
# T2 sequence (looked up): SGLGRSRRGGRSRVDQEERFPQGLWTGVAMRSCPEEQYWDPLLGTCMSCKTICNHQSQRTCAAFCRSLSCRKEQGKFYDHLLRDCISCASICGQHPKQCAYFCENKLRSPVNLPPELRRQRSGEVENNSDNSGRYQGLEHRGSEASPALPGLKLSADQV
# human BCMA-Fc [3] = molecular target: T1, human BCMA-Fc; assay: SPR (Biacore), affinities of R206E for BCMA-Fc and TACI-Fc compared
# Protocol: (§1) FIG. 10: Surface Plasmon Resonance sensorgrams to illustrate binding of TACI-Fc and BCMA-Fc to WT and R206E-APRIL. Sensorgrams of human (Panel A) and mouse (Panel B) receptors binding to WT and R206E-APRIL. Stepwise increments in the curves represent sequential injections of receptor at the following concentrations: […]. In some cases, no value for affinity was calculated due to a low binding response or high drift.
# In order to further assess the binding properties of the mutants and to measure apparent affinities and kinetics of receptor binding, a Surface Plasmon Resonance based receptor binding assay was performed on a Biacore 2000 (GE Healthcare, Diegem, Belgium). Anti-FLAG-M2 monoclonal antibody (Sigma-Aldrich) was diluted at a concentration of 5 μg/ml in 10 mM sodium acetate pH 4.5 and covalently immobilized (approx 1500 RU) to a CM-5 sensor chip (GE Healthcare), using standard amine coupling chemistry according to manufacturer's guidelines (Amine coupling kit, GE Healthcare). […] Dissociation was monitored for five minutes. […] For each combination of FLAG-APRIL and BCMA- or TACI-Fc, the apparent kₐ, kd and KD were calculated from a global fit of binding curves from at least three separate experiments. […]
# human BCMA-Fc [4] = molecular target: T1, human BCMA-Fc; assay: SPR (Biacore 2000), FLAG-APRIL captured by anti-FLAG M2, receptor-Fc injected, single cycle kinetics, 1:1 fit
# Protocol: as §1
# (§2) In order to further assess the binding properties of the mutants and to measure apparent affinities and kinetics of receptor binding, a Surface Plasmon Resonance based receptor binding assay was performed on a Biacore 2000 (GE Healthcare, Diegem, Belgium). Anti-FLAG-M2 monoclonal antibody (Sigma-Aldrich) was diluted at a concentration of 5 μg/ml in 10 mM sodium acetate pH 4.5 and covalently immobilized (approx 1500 RU) to a CM-5 sensor chip (GE Healthcare), using standard amine coupling chemistry according to manufacturer's guidelines (Amine coupling kit, GE Healthcare). The different FLAG-APRIL variants in the form of tissue culture supernatants were captured onto the chip via the FLAG-tag at 10 μl/minute for five minutes, giving capture levels ranging from 159 to 207 RU. As a reference lane, one of the flow cells was left free of soluble FLAG-APRIL, to control for any background binding. BCMA- or TACI-Fc were then injected for three minutes over all four flow cells at 30 μl/minutes at increasing concentrations (ranging from 1-50 nM) using the single cycle kinetics method at 25° C. Dissociation was monitored for five minutes. The resulting curves were fitted using a 1:1 Langmuir model using BIAevaluation software 4.1. For each combination of FLAG-APRIL and BCMA- or TACI-Fc, the apparent kₐ, kd and KD were calculated from a global fit of binding curves from at least three separate experiments. Non-specific binding in the reference cell was subtracted before curve fitting. Regeneration of the anti-FLAG antibody surface was carried out with a 10-minute injection at 30 μl/minute of a mixture of ⅓ volume of TBS pH 11.5, ⅓ volume of Ionic solution and ⅓ volume of water. The Ionic solution was comprised of KSCN (0.46 M), MgCl₂ (1.83 M), urea (0.92 M) and guanidine-HCl (1.83 M).
# [5] = molecular target: T3, mouse BCMA-Fc (R&D Systems) (mouse; human, UniProt O88472 2-49, limits assumed); assay: as above
# T3 construct: Bought; also called mBCMA-Fc; murine BCMA-Fc; not shown: Fc portion of human IgG1
# T3 chain (looked up): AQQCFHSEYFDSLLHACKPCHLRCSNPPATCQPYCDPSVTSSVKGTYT
# Protocol: as §1, §2
# human TACI-Fc [6] = molecular target: T2, human TACI-Fc; assay: SPR (Biacore 2000), FLAG-APRIL captured by anti-FLAG M2, receptor-Fc injected, single cycle kinetics, 1:1 fit; SPR (BIAcore), mean ± error of fits; weak but measurable binding
# Protocol: as §1
# as §2, with “Regeneration of the anti-FLAG antibody surface was carried out with a 10-minute injection at 30 μl/minute of a mixture of ⅓ volume of TBS pH 11.5, ⅓ volume of Ionic solution and ⅓ volume of water. The Ionic solution was comprised of KSCN (0.46 M), MgCl₂ (1.83 M), urea (0.92 M) and guanidine-HCl (1.83 M).” left out
# [7] = molecular target: T3, mouse BCMA-Fc (R&D Systems); assay: receptor-binding ELISA, mouse BCMA-Fc coated [TACI selective, Ms BCMA-Fc coated]
# Protocol: (§3) The relative binding of the variants to either BCMA or TACI, was tested using a binding ELISA. The following proteins were used: human BCMA-Fc, human TACI-Fc (both generated in-house), mouse BCMA-Fc (R&D Systems, Abingdon, UK), mouse TACI-Fc (R&D Systems); in all cases the Fc portion is from human IgG1. BCMA-Fc and TACI-Fc were coated on 96-well Nunc Maxisorp plates (Thermo Fischer Scientific, Roskilde, Denmark) at concentrations of 1 μg/ml and 2 μg/ml, respectively, in 0.5 M sodium bicarbonate buffer pH 9.5, overnight at 4° C. Plates were then blocked with 5% BSA for one hour at 37° C. Soluble APRIL variants in the form of tissue culture conditioned medium were then added to the plate for two hours at 37° C. Following APRIL binding, plates were washed three times with PBS, 0.05% TWEEN®20. Bound APRIL was detected with 1 μg/ml of HRP-coupled anti-FLAG M2 and visualized with 2,2′-azino-bis(3-ethylbenzothiazoline-6-sulphonic acid (ABTS) (Sigma-Aldrich). The absorbance was read at 405 nm using a UV-VIS microplate reader (BioRad, Veenendaal, The Netherlands).
# [8] = molecular target: T4, mouse TACI-Fc (R&D Systems) (mouse; human, UniProt Q9ET35 5-129, limits assumed); assay: receptor-binding ELISA, mouse TACI-Fc coated [TACI selective, Ms TACI-Fc coated]
# T4 construct: Bought; also called mTACI-Fc; murine TACI-Fc; not shown: Fc portion of human IgG1
# T4 sequence (looked up): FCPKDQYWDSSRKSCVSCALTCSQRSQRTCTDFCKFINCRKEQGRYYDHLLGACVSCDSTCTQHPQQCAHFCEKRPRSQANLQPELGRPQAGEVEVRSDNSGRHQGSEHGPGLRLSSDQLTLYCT
# Protocol: as §3
# human BCMA-Fc [9] = molecular target: T1, human BCMA-Fc; assay: receptor-binding ELISA, human BCMA-Fc coated, doubling dilutions of conditioned medium [BCMA-Fc coating]
# Protocol: (§4) FIG. 2: Production and real binding properties of the APRIL mutants. (Panel A) Production of APRIL variants in conditioned medium by transient transfection of 293T cells. Supernatants (10 μl of each) were analyzed by anti-FLAG immunoblotting. Upper panel: mutants predicted to be selective for BCMA. Lower panel: mutants predicted to be selective for TACI. All mutants were checked more than three times following independent rounds of transfection to assess their expression. (Panels B and C) Receptor binding ELISA to compare binding of the predicted BCMA- and TACI-specific APRIL variants to human BCMA-Fc and TACI-Fc. Bars, from left to right, represent doubling dilutions of the conditioned media starting from undiluted media. Relevant APRIL variants are shown with dark grey bars, WT APRIL with black bars and other variants with light grey bars. This is representative of three separate experiments performed with independent APRIL-containing cell-conditioned media.
# (§5) The relative binding of the variants to either BCMA or TACI, was tested using a binding ELISA. […] Bound APRIL was detected with 1 μg/ml of HRP-coupled anti-FLAG M2 and visualized with 2,2′-azino-bis(3-ethylbenzothiazoline-6-sulphonic acid (ABTS) (Sigma-Aldrich). The absorbance was read at 405 nm using a UV-VIS microplate reader (BioRad, Veenendaal, The Netherlands).
# human TACI-Fc [10] = molecular target: T2, human TACI-Fc; assay: receptor-binding ELISA, human TACI-Fc coated, doubling dilutions of conditioned medium [TACI-Fc coating]
# Protocol: as §4, §5
binder,measurement,setting,value
B1,binding result,human BCMA-Fc [1],no binding
same,binding result,human TACI-Fc [2],no binding
B2,binding result,human BCMA-Fc [1],no binding
same,binding result,human TACI-Fc [2],no binding
B3,binding result,human BCMA-Fc [1],no binding
same,binding result,human TACI-Fc [2],no binding
B4,fold selectivity for BCMA over TACI (comparison of affinities),human BCMA-Fc [3],25 fold
same,Kd,human BCMA-Fc [4],0.46 nM
same,koff,human BCMA-Fc [4],0.00015 s⁻¹
same,kon,human BCMA-Fc [4],330000 M⁻¹ s⁻¹
same,Kd,[5],0.095 nM
same,koff,[5],0.00015 s⁻¹
same,kon,[5],1.6e+06 M⁻¹ s⁻¹
same,Kd,human TACI-Fc [6],11 nM
same,koff,human TACI-Fc [6],0.01 s⁻¹
same,kon,human TACI-Fc [6],2e+06 M⁻¹ s⁻¹
B5,binding result,[7],no binding
same,binding result,[8],no binding
same,binding result,human BCMA-Fc [9],no binding (tested: undiluted conditioned medium)
same,binding result,human TACI-Fc [10],no binding (tested: undiluted conditioned medium)
